Results as given in paper PMC6030132, “Tailoring recombinant lipases: keeping the His-tag favors esterification reactions, removing it favors hydrolysis reactions” (Scientific Reports, 2018).

How the values were obtained:
[1] = test system: T1, CCCCCCCCCC(=O)Oc1ccc([N+](=O)[O-])cc1; assay: purified protein; assay type: biochemical, uncultured bacterium; conditions: apparent constant, free enzyme, 50 mM Tris-HCl pH 7.5, 1 mM CaCl2, 0.6% Triton X-100, 4% isopropanol, 1% acetonitrile, 25 °C, 95% confidence interval in parentheses
T1 construct: full-length lipC12 product (293 residues) from pTEV5lipC12, E. coli BL21(DE3)

[2] = test system: T2, CCCCCCCCCC(=O)Oc1ccc([N+](=O)[O-])cc1; assay: purified protein; assay type: biochemical, uncultured bacterium; conditions: apparent constant, free enzyme, 50 mM Tris-HCl pH 7.5, 1 mM CaCl2, 0.6% Triton X-100, 4% isopropanol, 1% acetonitrile, 25 °C, 95% confidence interval in parentheses
T2 construct: full-length lipC12 product (293 residues) from pTEV5lipC12, E. coli BL21(DE3); His-tag cut off with TEV protease, GASH left at N-terminus

Substance | Km [1] | kcat [1] [s⁻¹] | kcat/Km [1] [M⁻¹ s⁻¹] | Km [2] | kcat [2] [s⁻¹] | kcat/Km [2] [M⁻¹ s⁻¹]
HisTEVS-LipC12 (uncultured bacterium) | 1.77 (1.56–2.02) mM | 2.53 | 1430 |  |  | 
cLipC12 (uncultured bacterium) |  |  |  | 1.33 (1.17–1.51) mM | 2.52 | 1900
